Results: paper PMC4022893

Legend:
[1] = 125I-FSH binding to CHO-hFSHR membranes ± Compound 5; conditions: glycan lost; control: glycosylated FSH (about 3-fold more binding with Compound 5)
[2] = biological target: FSHR of the PathHunter FSHR β-arrestin assay cells (UniProt P23945); assay: split reporter (BiFC, NanoBiT); PathHunter FSHR β-arrestin recruitment assay (DiscoveRx 93-0517C2) in CHO cells; cells stimulated with FSH, Compound 5, both, or the βT60E mutant; recruited β-arrestin normalized to 100% for the maximum response of FSH
Sequence of FSHR of the PathHunter FSHR β-arrestin assay cells (P23945 18-695): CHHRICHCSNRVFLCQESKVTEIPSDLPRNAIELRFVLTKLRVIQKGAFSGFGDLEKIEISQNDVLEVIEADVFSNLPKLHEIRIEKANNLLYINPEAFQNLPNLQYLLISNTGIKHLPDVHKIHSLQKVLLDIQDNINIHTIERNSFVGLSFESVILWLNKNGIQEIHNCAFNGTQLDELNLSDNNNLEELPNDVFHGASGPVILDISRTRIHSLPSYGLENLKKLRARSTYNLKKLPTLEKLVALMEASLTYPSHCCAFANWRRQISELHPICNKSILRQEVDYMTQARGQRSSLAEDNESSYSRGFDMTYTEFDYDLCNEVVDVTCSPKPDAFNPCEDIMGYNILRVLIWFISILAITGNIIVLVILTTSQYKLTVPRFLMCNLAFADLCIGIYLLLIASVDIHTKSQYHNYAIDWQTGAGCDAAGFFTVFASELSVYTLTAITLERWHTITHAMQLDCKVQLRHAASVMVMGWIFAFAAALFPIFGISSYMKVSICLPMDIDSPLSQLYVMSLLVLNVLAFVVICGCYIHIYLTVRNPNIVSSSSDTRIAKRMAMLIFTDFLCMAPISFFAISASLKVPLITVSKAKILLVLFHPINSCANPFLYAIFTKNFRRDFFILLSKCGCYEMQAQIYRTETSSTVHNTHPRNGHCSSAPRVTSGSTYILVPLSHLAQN

Sequence of β-arrestin of the PathHunter FSHR β-arrestin assay cells (P32121 whole entry): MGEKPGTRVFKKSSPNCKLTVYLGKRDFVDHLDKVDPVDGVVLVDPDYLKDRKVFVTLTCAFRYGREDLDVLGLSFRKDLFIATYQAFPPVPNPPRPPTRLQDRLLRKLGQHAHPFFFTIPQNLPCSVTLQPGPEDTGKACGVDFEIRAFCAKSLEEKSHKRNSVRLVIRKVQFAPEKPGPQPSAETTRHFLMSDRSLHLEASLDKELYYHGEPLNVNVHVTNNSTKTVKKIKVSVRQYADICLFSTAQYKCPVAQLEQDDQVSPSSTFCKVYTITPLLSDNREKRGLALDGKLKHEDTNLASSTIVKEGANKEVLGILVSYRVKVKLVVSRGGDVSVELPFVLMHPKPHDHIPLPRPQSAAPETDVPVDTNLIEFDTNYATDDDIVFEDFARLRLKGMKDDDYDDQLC
Sequence of FSH α-subunit: αN52D (chain, as listed by the source N52D): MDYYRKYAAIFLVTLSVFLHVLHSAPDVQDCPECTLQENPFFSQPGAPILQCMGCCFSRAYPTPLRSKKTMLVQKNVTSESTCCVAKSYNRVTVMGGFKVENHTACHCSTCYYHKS

Substance	other: Compound 5 enhancement of FSHR binding [1]	β-arrestin recruited with Compound 5 plus FSH at EC100, percent of the maximum with FSH alone [2]	β-arrestin recruited with FSH plus a high concentration of Compound 5, percent of the maximum with FSH alone [2]
FSH α-subunit: αN52D	decreases	–	–
β-arrestin of the PathHunter FSHR β-arrestin assay cells (from UniProt P32121 1-409) (natural protein)	–	280%	280%
